# Results reported in PMC4281067, “New Insight into Secreted Ribonuclease Structure: Binase Is a Natural Dimer” (PLoS ONE, 2014).
# Molecular target: the molecule itself
# Assay: SDS-PAGE (SDS-resistant dimer band) with LC-MS/MS of the excised bands; lyophilised pure binase on 15% SDS-PAGE with 0.1% SDS; 12 and 25 kDa bands, both detected by anti-binase immunoblot and in-gel RNase activity; 25 kDa band not fully lost with 2% SDS or 4-8 M urea; bands trypsin-digested and identified by LC-MS/MS
protein,measurement,value
"binase (guanyl-preferring RNase secreted by Bacillus pumilus), wild-type enzyme designated as ""native"" binase (enzyme, Bacillus pumilus (former B. intermedius), UniProt P00649 54-162, looked up, binase, secreted RNase of Bacillus pumilus (former B. intermedius); single chain of 109 amino acids, molecular weight 12.3 kDa; secreted enzyme isolated from the medium; binase has no sulfhydryl groups; also called B. intermedius RNase; wild-type binase; source: isolated from the medium of B. pumilus 7P, purified (MonoS), lyophilised; also unpurified B. pumilus culture fluid) AVINTFDGVADYLIRYKRLPDNYITKSQASALGWVASKGNLAEVAPGKSIGGDVFSNREGRLPSASGRTWREADINYVSGFRNADRLVYSSDWLIYKTTDHYATFTRIR",stoichiometry N,2
